Test results reported in PMC12749690.

Assays:
[1] = biological target: CtpA_(F105R) mutant (Helicobacter pylori G27); assay: crystal structure; sitting-drop vapour diffusion; wild type: 100 mM bis-Tris-HCl pH 6.5, 100 mM magnesium chloride, 25% PEG 3350, 16 °C; F105R: Morpheus condition A8
[2] = biological target: CtpA_(S300A/K325A/Q329A) triple mutant (CtpATM) (Helicobacter pylori G27); assay: cryo-EM structure; 2 mg/ml protein on Quantifoil R1.2/1.3 grids, Titan Krios 300 kV
[3] = biological target: CtpAΔN46 (residues 47-454), wild-type H. pylori CtpA (Helicobacter pylori G27); assay: AUC; sedimentation velocity, absorbance, 28,000 rpm, 16 °C, c(s) model in SEDFIT
[4] = biological target: CtpAΔN46 (residues 47-454), wild-type H. pylori CtpA (Helicobacter pylori G27); assay: crystal structure; sitting-drop vapour diffusion; wild type: 100 mM bis-Tris-HCl pH 6.5, 100 mM magnesium chloride, 25% PEG 3350, 16 °C; F105R: Morpheus condition A8
[5] = biological target: CtpAΔN46 (residues 47-454), wild-type H. pylori CtpA (Helicobacter pylori G27); assay: cryo-EM structure; 2 mg/ml protein on Quantifoil R1.2/1.3 grids, Titan Krios 300 kV
[6] = biological target: Recombinant HP1076 protein (Helicobacter pylori); assay: MST; CtpA_(S300A) diluted from 165 μM to 5.04 nM, mixed 1:1 with 45 nM RED-NHS-labelled HP1076; Monolith NT.115, 70% excitation power, 40% MST power, 20 °C

## CtpA_(F105R) mutant (enzyme)
[1]
  stoichiometry N: 6

## CtpA_(S300A/K325A/Q329A) triple mutant (CtpATM) (enzyme)
[2]
  stoichiometry N: 6

## CtpAΔN46 (residues 47-454), wild-type H. pylori CtpA (enzyme)
[3]
  stoichiometry N: 6
[4]
  stoichiometry N: 6
[5]
  stoichiometry N: 6

## CtpA_(S300A) (inactive mutant of CtpAΔN46) (enzyme)
[6]
  Kd: 15.4 µM
